B1: PRIM1 (parent)
chain: CCSSADICPKCWTLMTMAIRIIDR
B2: TRIM15 (parent)
chain: LLARLRELEQQIWKERDEYITKVS

Variants of: B1
Assay: protein stability index of a GFP-peptide fusion (GPS, HEK-293T) (PSI 1-6); higher = more stable
Conditions: c terminus: a fixed tail appended
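Further: lentivirally expressed fusions sorted by FACS into six bins by GFP to DsRed ratio, PSI derived from sequencing read proportions per bin multiplied by bin number.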

Protein stability index: each site, then its substitutions
C2: G 1.6; H 1.69; Q 1.9; N 2.03; K 1.45; E 1.83; L 2.55; F 1.83; D 2.41; I 1.74; W 1.78; S 1.96; V 2.06; R 1.91; A 2.49; Y 1.96; P 2.21; M 2.48
C1: H 1.87; E 1.6; D 2.01; K 1.61; Y 1.37; R 2.01; F 1.5; Q 1.85; G 1.88; I 1.53; W 2.25; S 1.79; P 1.78; L 2; T 2.12; N 1.49; M 2.5; V 2.87
C8: L 3.02; I 3.3; K 2.95; A 3.21; N 2.83
I7: G 1.98; R 1.85; K 2.65; A 1.87; S 1.72; N 1.69; V 1.88; P 2.07; E 2.21; T 1.77; M 1.52; C 1.94; Q 2.05; F 2.63; W 2.16; D 2.35; H 1.91; L 2.56; Y 1.57
A5: F 2.5; I 1.33; Y 3.67; W 2.15; V 1.64; P 1.62; R 1.67; D 1.41; T 2.98; K 1.93; L 1.15; Q 1.51; N 1.54; M 1.79; G 1.7; H 1.71; C 2.01; S 2.63
S3: A 1.82; P 1.28; R 1.9; F 1.51; D 1.56; K 1.45; E 2.04; Y 2.43; W 1.42; L 2.32; I 1.87; H 2.16; C 1.65; T 1.53; N 1.95; Q 2.08; M 2.7
S4: E 2.11; G 1.85; Y 1.91; L 2.24; D 1.48; A 1.87; F 2.39; M 2.97; H 1.72; I 1.79; P 1.67; W 1.51; N 1.72; T 1.63; Q 2.66; C 2.72; R 2.42; K 2.2; V 2.19
D6: C 1.62; F 2.11; Y 1.58; M 2.15; G 1.47; R 1.51; Q 2.44; N 1.86; T 2.29; V 1.47; I 1.91; H 2.49; K 2.14; E 2.22; W 2.91; P 2.13; A 1.7; S 1.86

Variants of: B2
Assay: as above
Conditions: c terminus: a fixed tail appended

Protein stability index: each site, then its substitutions
S24: N 1.52; A 1.63; E 1.38; C 2.05; I 2.42; K 1.44; R 1.93; M 2.12; T 1.31; V 3; Y 2.94; H 2.29; L 1.95; D 3.02; P 1.82; F 1.51
V23: Y 2.4; H 1.86; A 1.5; I 1.86; M 2.03; L 2; S 2.25; C 2.1; P 1.26; F 1.69; D 3.9; Q 1.71; R 1.57; W 1.7; N 1.64; T 1.63
E9: N 1.94; Q 1.07; T 3.38; L 1.8; H 1.45; I 1.96; Y 1.59; D 3.17; C 2.11; R 2.22; P 2.29; K 1.62; W 1.69; F 3.06
R16: K 1.92; Q 1.58; Y 2.13; M 1.61; H 1; C 2; E 2; A 1.78; L 3.68
Y19: D 2.12; P 1.55; S 1.71; M 2.21; E 1.39; L 1.98; T 1.67; N 1.91; W 2.07; Q 2.13
I12: V 1.65; R 2.21; M 3.6; E 2.38; D 2.75; Y 2.13; W 1.43; P 1.77; A 1.88; C 1.42; L 1.67; N 1.24; Q 2.34; F 2.15; H 1.8; S 1.35
Q11: G 1.41; R 2.29; P 1.62; W 1.08; H 1.98; N 1.68; M 1.08; E 1.01; D 2.36; Y 1.88; A 1.98; S 2.51; V 2.12
D17: R 2.14; N 1; Y 3.07; L 1.04; Q 3.32; E 1.78; P 1.86; T 2.08
L8: V 1.69; W 1.62; R 1.44; S 1.75; N 2.03; Y 2.22; T 2.74; P 2.55
E15: A 1.28; Q 1.47; R 1.05; L 2.15; D 2.08; N 1; I 1.42; G 1.18; F 2.15
K14: T 2.85; F 1.68; N 1; P 2.2; A 1.24; E 1.05; I 2.26; H 1.67; L 2.06
I20: Y 3.1; C 1.08; E 4.11; A 1.3; M 1.71; G 2.17; F 3.15; H 2.12; P 1.6; R 2.91; L 1.33; K 2.1; D 2.11; Q 2.09; S 2.18; N 1.63
T21: I 2.45; K 1.48; A 2.07; H 1.49; P 2.59; Y 2.02; W 2.63; D 1.32; L 2.39; Q 2.41; N 1.7
Q10: S 1.18; V 2.31; M 3.32; D 2.21; T 1.09; E 1.51; I 2.65; K 2.02; F 3.2; R 2.02; G 1.58; N 2.35; P 1.4; W 3.11
E18: M 2.33; Q 1.18; N 2.08; G 1.81
W13: P 1.81; S 1.68; R 1.77; I 1.32; C 2.68; L 1.71; T 1.69; E 2.03; G 2.31; Y 1.51; F 2.83; K 2.24; H 1.37; Q 2.46; A 1.52; V 1.96
K22: C 1.94; V 1.97; R 2.46; T 1.43; N 1.38; D 1.97; F 1.72; A 2.38; W 2.06; P 1.23; Y 1.9; I 1.78; G 2.25
